Target: STn expressing TAG-72 glycoprotein (human tumor-associated glycoprotein 72) (human) (UniProt Q01973)
Test: flow cytometry on LS174T cells, 5 µg 3E8, detected with mouse anti-human IgG-PE

Sequence of UniProt Q01973 (Q01973 30-937 limits assumed): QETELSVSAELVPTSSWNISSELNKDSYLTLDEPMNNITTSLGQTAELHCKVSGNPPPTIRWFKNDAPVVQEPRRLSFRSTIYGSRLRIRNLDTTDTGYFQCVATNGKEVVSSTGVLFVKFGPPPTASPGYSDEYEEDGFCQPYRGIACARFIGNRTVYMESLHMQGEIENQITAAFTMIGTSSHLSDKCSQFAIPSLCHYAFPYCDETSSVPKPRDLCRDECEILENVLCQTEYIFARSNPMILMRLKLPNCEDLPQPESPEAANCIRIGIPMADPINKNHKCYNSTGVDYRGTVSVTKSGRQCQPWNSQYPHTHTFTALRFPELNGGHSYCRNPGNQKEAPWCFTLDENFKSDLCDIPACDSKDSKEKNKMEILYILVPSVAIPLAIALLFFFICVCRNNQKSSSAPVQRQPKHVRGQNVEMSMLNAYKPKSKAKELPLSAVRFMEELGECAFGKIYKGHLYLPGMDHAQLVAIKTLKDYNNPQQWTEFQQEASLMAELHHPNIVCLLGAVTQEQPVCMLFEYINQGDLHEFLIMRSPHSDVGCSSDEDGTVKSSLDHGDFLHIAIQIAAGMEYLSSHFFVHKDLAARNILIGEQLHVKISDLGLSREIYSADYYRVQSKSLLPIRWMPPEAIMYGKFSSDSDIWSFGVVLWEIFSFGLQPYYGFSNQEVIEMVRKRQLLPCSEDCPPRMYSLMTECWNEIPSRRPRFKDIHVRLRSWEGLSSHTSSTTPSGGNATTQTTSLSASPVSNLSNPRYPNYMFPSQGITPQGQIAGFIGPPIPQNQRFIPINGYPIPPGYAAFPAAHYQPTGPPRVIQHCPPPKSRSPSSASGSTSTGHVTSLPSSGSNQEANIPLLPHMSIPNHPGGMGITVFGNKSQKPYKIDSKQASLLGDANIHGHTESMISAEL

STn specific antibody (3E8)
percent of cells stained: 98%

From patent US20190085092A1
